How the values were obtained:
[1] = system: GST-ZCCHC3 MF R247S (human); test: pull-down
[2] = system: GST-ZCCHC3 MF R168S (human); test: pull-down
[3] = system: GST-ZCCHC3 MF R168/247S (human); test: pull-down
[4] = target: T1, GST-ZCCHC3 MF (middle-fold domain) (human, UniProt Q9NUD5 159-334); test: pull-down; settings: protein: recombinant; tags: GST; hairpin
T1 sequence: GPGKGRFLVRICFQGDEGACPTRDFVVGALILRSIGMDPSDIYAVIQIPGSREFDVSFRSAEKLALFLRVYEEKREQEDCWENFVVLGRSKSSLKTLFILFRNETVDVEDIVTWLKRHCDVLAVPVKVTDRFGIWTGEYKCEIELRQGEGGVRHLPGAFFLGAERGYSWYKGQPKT

[5] = target: T1, GST-ZCCHC3 MF (middle-fold domain); test: pull-down; Pull-down: 20 mM Tris-HCl pH 7.4, 30 mM NaCl, 0.1 mM MgCl2, 1 mM DTT, RNase inhibitor, 10 min; EMSA: 40 mM Tris pH 8.0, 2 mM KCl, 1 mM MgCl2, 1% NP-40, 1 mM DTT, 25 C, 10 min; settings: protein: recombinant; tags: GST; hairpin

## HIV-1 5' LTR (R-U5) RNA
[1]
  binding signal: 50 % of WT
[2]
  binding signal: 50 % of WT
[3]
  binding signal: 15 % of WT

B1: HIV-1 LTR SL1 (structured_RNA)
RNA: UCUCUGGUUAGACCAGAUCUGAGCCUGGGAGCUCUCUGGCUAACUAGGGA
[4]
  binding result: binds

B2: HIV-1 LTR SL3 (structured_RNA)
RNA: CUAGAGAUCCCUCAGACCCUUUUAGUCAGUGUGGAAAAUCUCUAG
[5]
  binding result: binds

B3: HIV-1 LTR SL2 (structured_RNA)
RNA: CCACUGCUUAAGCCUCAAUAAAGCUUGCCUUGAGUGCUCAAAGUAGUGU
[4]
  binding result: binds

From publication PMC10879702, “Host ZCCHC3 blocks HIV-1 infection and production through a dual mechanism”
